For one series, the system named is OaAEP1b-C247A-Δ351. Put plainly: Active site titration by FRET ligation assay with covalent inhibitor. Type of series: biochemical, Oldenlandia affinis. To be noted: 1 hour incubation with Ac-YVAD-cmk, enzyme 280 nM. The protocol: Active site titration: The procedure described in reference was followed. The enzyme preparation was diluted to a concentration of 280 nM using a buffer containing 20 mM sodium phosphate at pH 6.5, 5 mM 2-Mercaptoethanol. Solutions containing serial twofold dilution of inhibitor YVAD-cmk were prepared in a black microtiter plate (Greiner Bio-One) using buffer as diluent. The enzyme was subsequently added to the wells containing the inhibitor to a final volume of 50 μL. The plate was incubated for 1 hour at room temperature before adding FRET peptides (PIE {EDANS} YNAL (SEQ ID NO:18) and GIK {DABSYL} SIP (SEQ ID NO: 19)), which were mixed at a molar ratio of 1:3 giving a final enzyme: substrate molar ratio of 1:200. The EDANS fluorescence signal was measured with an excitation wavelength of 336 nm and an emission wavelength of 490 nm. Relative fluorescence units (RFU) of quenched EDANS signal were plotted against time. The value of the initial velocity (Vi) was determined from the slope of the RFU (t) curve. The measured value of Vi was subsequently normalized by dividing with the initial rate obtained in the absence of inhibitor (control V0). The calculated Vi/V0 ratio was plotted against inhibitor concentrations, generating an inhibition curve. […]

In series [1] the test system is linear NH2-GLPVSTKPVATRNAL-COOH peptide substrate. The experiment in a line: Peptide cyclization assay (MALDI-TOF MS). To be noted: 37° C., after twelve minutes of reaction time. It is filed as biochemical. As to the method:
Peptide cyclization assay: The peptide used for cyclization assay was purchased commercially from GenScript, NH2-GLPVSTKPVATRNAL-COOH (SEQ ID NO:17). Cyclization assays were performed in 50 μl reaction mixtures containing 20 mM phosphate buffer, pH 6.5, ligases (40 nM) and peptide substrates (20 μM). Reaction was performed at 37° C., for 1 hour. The cyclization product was analyzed by MALDI-TOF MS (ABI 4800 MALDI TOF/TOF).
To evaluate the cyclization activity of the purified OaAEP1b-C247A-Δ351, the enzyme was tested against a linear NH2-GLPVSTKPVATRNAL-COOH (SEQ ID NO:17) peptide substrate (labelled “LS”) (FIG. 6A). The cyclization reaction was performed at 37° C., and samples were collected every two minutes. MALDI-TOF MS was subsequently utilized to detect a cyclized product (labelled “CP”). Successful cyclization carried out by the active ligase of the LS with a mass of 1524 Da would result in CP with a mass of 1321 Da (FIG. 6A). After twelve minutes of reaction time, OaAEP1b-C247A-Δ351 had converted the majority of the linear substrate to the circularized product. No LS peak could be detected compared to a high CP peak detected in the MALDI-TOF mass spectra of the reaction mixture.

A short description of series [2]: Storage stability of the purified enzyme. It is filed as physicochemical. Conditions: −80° C. The protocol: Refolding and purification of constitutively active OaAEP1b-C247A-4351 using dialysis method: With all steps performed at 4° C., protein purification was achieved by resuspending thawed pellets in 30 mL of lysis buffer (100 mM Bis-Tris, pH 6.5, 500 mM NaCl, 10% (v/v) glycerol), sonicating the pellets followed by clearing the lysates by centrifugation at 58,000 g for 45 min. The insoluble fraction was resolubilized in 10 mL of resolubilizing buffer (50 mM Bis-Tris, pH 6.5, 150 mM NaCl, 1 mM EDTA, 50 mM Glycine, 8 M urea) overnight, with agitation. The concentration of denatured protein was determined using nanodrop and diluted to ˜2 mg mL-1 with buffer 1 (50 mM Bis-Tris, pH 6.5, 150 mM NaCl, 500 mM L-Arginine, 1 M urea, 0.25 mM L-Glutathione oxidized, 2.5 mM L-Glutathione reduced). The diluted denatured protein was dialyzed against buffer 2 (50 mM Bis-Tris, pH 6.5, 150 mM NaCl, 200 mM L-Arginine, 0.125 mM L-Glutathione oxidized, 1.25 mM L-Glutathione reduced) for 8 hr, followed by two buffer exchanges with buffer 3 (20 mM Bis-Tris, pH 6.5, 150 mM NaCl), for a duration of 8 hr for each buffer exchange. The refolded proteins were purified by affinity chromatography (HisTrap column, Cytiva), followed by size exclusion chromatography (HiLoad 16/600 Superdex 200, Cytiva). The proteins eluted as monomers during size exclusion purification. […]

Experimental findings from patent publication US20250283065A1, “TRUNCATED POLYPEPTIDES HAVING PROTEIN LIGASE ACTIVITY AND METHODS OF PRODUCTION THEREOF” (NANYANG TECHNOLOGICAL UNIVERSITY, priority 2022, published 2025) are described below.

B1: OaAEP1b-C247A-Δ351: truncated OaAEP1b-C247A construct, residues 352-474 deleted, D351 as C-terminus; constitutively active peptide asparaginyl ligase (protein)
chain: GTRWAVLIAGSKGYANYRHQAGVCHAYQILKRGGLKDENIVVFMYDDIAYNESNPRPGVIINSPHGSDVYAGVPKDYTGEEVNAKNFLAAILGNKSAITGGSGKVVDSGPNDHIFIYYTDHGAAGVIGMPSKPYLYADELNDALKKKHASGTYKSLVFYLEACESGSMFEGILPEDLNIYALTSTNTTESSWCYYCPAQENPPPPEYNVCLGDLFSVAWLEDSDVQNSWYETLNQQYHHVDKRISHASHATQYGNLKLGEEGLFVYMGSNPANDNYTSLDGNALTPSSIVVNQRDAD
With B1, the “fraction of the measured protein concentration that is active and amenable to complete inhibition” value in the series with OaAEP1b-C247A-Δ351 was “about 53%”. The “cyclization of linear substrate to cyclized product” value in series [1] was “complete cyclization reaction”. Also, in series [2], the storage stability entry is “up to two years”.
